Consider 33 sequences from the supplement of paper PMC11865577.

What all share (assay): pull-down binding Z-score (relative to library population); higher = stronger binding
Conditions in all cases: RNA library: Library-2

Series [1] concerns TO-3-N3 (biotin conjugate). In a few lines: (§1)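 Streptavidin beads bearing 100 pmol of a biotin-conjugated small molecule were incubated for 60 min at 25 °C with 1 μg of heat-folded, Cy5- or Cy3-end-labelled RNA library in phosphate/NaCl/KCl buffer. Hot SDS eluted the RNA that stayed bound after three washes, and this RNA was hybridised for 20 h at 55.5 °C to a DNA barcode microarray. Binding was expressed as a Z-score against the library mean and standard deviation, after subtraction of a beads-only signal and trimmed averaging of barcoded replicate probes.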

Series [2] concerns TO-3-N3-2 (biotin conjugate). The method in brief: as §1
In a further series the test system is TO-N3 (biotin conjugate). In a few lines:
as §1

Series [3] deals with TO-N3-2 (biotin conjugate). The method in brief:
as §1

For the sequence “GGACCAGGAACUAAUCAGACAAGGAACUGAUUACAAACAUUGGCC [DMSMaPseq_invitro_SARS-CoV-2_Motif_522]”, the “pull-down binding Z-score” value in series [1] was 1.03; in series [2] it was 0.134; in the series on TO-N3 (biotin conjugate) it was 1.01; in series [3], 0.031.

For GUGUAAAAGUGCCUUUUACAU, the “pull-down binding Z-score” value is -0.525 in series [1], -0.646 in series [2], -0.957 in the series with TO-N3 (biotin conjugate) and -0.872 in series [3].

With “GCACUAUUGCCUUUGGAGGCUGUGUGU [SHAPE_invivo_SARS-CoV-2_Motif_29]”, the “pull-down binding Z-score” value is 0.554 in series [1], -0.236 in series [2], 0.415 in the series on TO-N3 (biotin conjugate) and -0.0377 in series [3].

Take “UGGUUGGUUGGUUGGUUGGUUGGUUGGUUGGU [G4_r(UGGU)8]”: the “pull-down binding Z-score” value in series [1] turned out to be 8.68; in series [2] it was 9.27; with TO-N3 (biotin conjugate), 7.53; in series [3] it was 5.6.

UGCACUUGACCCUCUCUCAGAAACAAAGUGUA: the “pull-down binding Z-score” value in series [1] is 0.756; in series [2], -0.162; in the series on TO-N3 (biotin conjugate), 0.625; in series [3] it was -0.236.

As to “GCACGUAGUGUAGCUAGUCAAUCCAUCAUUGCCUACACUAUGUC”, the “pull-down binding Z-score” value in series [1] came out at 0.288; in series [2], 0.0633; in the series with TO-N3 (biotin conjugate) it was 0.227; in series [3], 0.486.

With “GUGAGAGAGAGCCGGAACCCAGGGAAUGCUGAGUUCGAAGAUCUCAC [IAV_invivo_NP_5_Motif_14+IAV_invivo_NP_5_Motif_14]”, the “pull-down binding Z-score” value in series [1] is 0.351; in series [2] it was 0.125; in the series on TO-N3 (biotin conjugate), 0.687; in series [3], 1.5.

Consider “GUACUUAAUGAGAAGUGC [SHAPE_invivo_SARS-CoV-2_Motif_56]”, for which the “pull-down binding Z-score” value is -0.216 in series [1], -0.138 in series [2], -0.461 in the series on TO-N3 (biotin conjugate) and -0.836 in series [3].

For the sequence AGGUAAGUAUGAUACUUACCUG [U1snRNP5ss-2], the “pull-down binding Z-score” value was -0.742 in series [1], -0.581 in series [2], -0.856 with TO-N3 (biotin conjugate) and -0.8 in series [3].

On to “ACCUUUAAUUGAAUUGUGCGUGGAUGAGGCUGGUUCUAAAUCACCCAUUCAGUACAUCGAUAUCGGU [SHAPE_invivo_SARS-CoV-2_Motif_532]”, for which the “pull-down binding Z-score” value in series [1] is -0.881; in series [2], -0.862; in the series with TO-N3 (biotin conjugate), -1.07; in series [3], -0.962.

Take “AAACUCAAACCCGUCCUUGAUUGGCUUGAAGAGAAGUUUAAGGAAGGUGUAGAGUUU”: the “pull-down binding Z-score” value in series [1] is -0.653; in series [2], 0.119; with TO-N3 (biotin conjugate) it was -0.588; in series [3], -0.346.

For “AUCUUAGGGAAUUUGUGUUUAAGAAUAUUGAUGGUUAUUUUAAAAUAUAUUCUAAGCACACGCCUAUUAAUUUAGUGCGUGAUCUCCCUCAGGGU”, the “pull-down binding Z-score” value in series [1] is -0.775; in series [2], -0.113; in the series on TO-N3 (biotin conjugate), -0.897; in series [3], -0.222.

Take “UCACUCACUGAGUGA [IAV_invivo_NP_5_Motif_1+IAV_invivo_NP_5_Motif_1]”: the “pull-down binding Z-score” value is -0.0667 in series [1], -0.357 in series [2], -0.616 with TO-N3 (biotin conjugate) and -1.45 in series [3].

For the sequence CUCUCAUUUUGUUAACUUAGACAACCUGAGAG, the “pull-down binding Z-score” value in series [1] is -0.827; in series [2], -0.35; in the series with TO-N3 (biotin conjugate), -1.13; in series [3], -1.2.

For “GACUACUAGCGUGCCUUUGUAAGCACAAGCUGAUGAGUACGAACUUAUGUACUCAUUCGUUUCGGAAGAGACAGGUACGUUAAUAGUU [SHAPE_invitro_SARS-CoV-2_Multi_71_ComplexLevel_1]”, the “pull-down binding Z-score” value in series [1] was found to be 0.389; in series [2], 0.392; in the series with TO-N3 (biotin conjugate), 0.649; in series [3], 0.672.

With “CAUAGAUUAUGACUGUG [SHAPE_invivo_SARS-CoV-2_Motif_206]”, the “pull-down binding Z-score” value is -0.165 in series [1], -0.373 in series [2], -0.396 with TO-N3 (biotin conjugate) and -0.826 in series [3].

As to “UGGGGUUGGGGUUGGGGUUGGGGUUGGGGUUGGGGUUGGGGUUGGGGU [G4_r(UGGGGU)8]”, the “pull-down binding Z-score” value stood at 7.69 in series [1], 8.63 in series [2], 6.59 with TO-N3 (biotin conjugate) and 4.93 in series [3].

On to “UUAAUGCCUGUCUGUGUGGAAACUAAAGCCAUAGUUUCAACUAUACAGCGUAAAUAUAAGGGUAUUAA [DMSMaPseq_invitro_SARS-CoV-2_Motif_83]”, for which the “pull-down binding Z-score” value in series [1] is -0.287; in series [2], 0.502; in the series with TO-N3 (biotin conjugate) it was -0.439; in series [3] it was -0.463.

For “UGGGGAGUUGAACCUA [IAV_invivo_PB2_1_Motif_19+IAV_invivo_PB2_1_Motif_19]”, the “pull-down binding Z-score” value in series [1] is 0.448; in series [2], 0.0385; with TO-N3 (biotin conjugate), 0.376; in series [3], -0.437.

Regarding “CCUCUGACUAAGGGG [IAV_invivo_M1_M2_7_Motif_4+IAV_invivo_M1_M2_7_Motif_4]”, the “pull-down binding Z-score” value in series [1] is -0.159; in series [2], -0.414; in the series with TO-N3 (biotin conjugate) it was -0.504; in series [3] it was -1.25.

Consider “GUCAAAGUGACUAUUGAC [SHAPE_invitro_SARS-CoV-2_Motif_373]”, for which the “pull-down binding Z-score” value in series [1] was -0.385; in series [2] it was -0.444; with TO-N3 (biotin conjugate), -0.53; in series [3], -0.385.

With ACCUGCUCAGUAUGAACUUAAGCAUGGU, the “pull-down binding Z-score” value in series [1] is -0.339; in series [2], -0.184; in the series with TO-N3 (biotin conjugate) it was -0.561; in series [3], -0.0122.

With “GCACAUAUAUCUACUAUUGGUGUUUGUUCUAUGACUGACAUAGCCAAGAAACCAACUGAAACGAUUUGUGC”, the “pull-down binding Z-score” value in series [1] was -0.793; in series [2] it was -0.32; in the series on TO-N3 (biotin conjugate), -0.457; in series [3] it was 0.00798.

Turning to “CUUUUGAAGAAG [SHAPE_invivo_SARS-CoV-2_Motif_195]”, the “pull-down binding Z-score” value is -0.686 in series [1], -0.577 in series [2], -1.16 with TO-N3 (biotin conjugate) and -1.33 in series [3].

With GUUACGACUAUUGUAUACCUUACAAUAGUGUAAC, the “pull-down binding Z-score” value worked out at 0.593 in series [1], 0.229 in series [2], 0.531 in the series on TO-N3 (biotin conjugate) and 0.142 in series [3].

With “GUGAUAGAGCCAUGCCUAACAUGCUUAGAAUUAUGGCCUCAC”, the “pull-down binding Z-score” value was 0.323 in series [1], 0.0068 in series [2], 0.179 in the series on TO-N3 (biotin conjugate) and -0.0566 in series [3].

As to “CUGUCAUGGAAGCAAGUACUGGCAG [IAV_invivo_PA_3_Motif_16+IAV_invivo_PA_3_Motif_16]”, the “pull-down binding Z-score” value in series [1] came out at 0.591; in series [2], 0.12; in the series with TO-N3 (biotin conjugate), 0.596; in series [3], 0.323.

“AACUUUAAUGUU [SHAPE_invitro_SARS-CoV-2_Motif_263]”: the “pull-down binding Z-score” value was 0.212 in series [1], -0.765 in series [2], 0.00196 in the series with TO-N3 (biotin conjugate) and -1.33 in series [3].

On to CAACCUAAAUAGAGGUAUG, for which the “pull-down binding Z-score” value is -0.399 in series [1], -0.292 in series [2], -0.716 with TO-N3 (biotin conjugate) and -0.591 in series [3].

Consider CAAGGGUACACACCACUG, for which the “pull-down binding Z-score” value in series [1] is 0.824; in series [2], -0.131; with TO-N3 (biotin conjugate), 0.81; in series [3] it was 0.0749.

For the sequence “UAGUAGCUGGUGGUAUUGUAGCUAUCGUAGUAACAUGCCUUGCCUACUA [DMSMaPseq_invitro_SARS-CoV-2_Motif_172]”, the “pull-down binding Z-score” value in series [1] was -0.611; in series [2], -0.39; with TO-N3 (biotin conjugate), -0.871; in series [3] it was -1.01.

Consider “CUCUAUGACAAACUUGUUUCAAGCUUUUUGGAAAUGAAGAGUGAAAAGCAAGUUGAACAAAAGAUCGCUGAG”, for which the “pull-down binding Z-score” value in series [1] was -0.302; in series [2], -0.291; in the series on TO-N3 (biotin conjugate) it was -0.314; in series [3] it was -0.00802.

Turning to UGGUUGGUUGGUUGGUUGGUUGGU [G4_r(UGGU)6], the “pull-down binding Z-score” value in series [1] came to 7.93; in series [2] it was 7.83; in the series on TO-N3 (biotin conjugate), 6.68; in series [3], 4.58.
